Data reported in the DeepSol protein solubility set.

Assay: soluble on expression in E. coli; label from the status in PepcDB or PDB records

Sequence | soluble on expression in E. coli
MGSDKIHHHHHHMNLYVGLDVGTTGVKGILVNEKGEILATANERLTMFTPQPAWAEQDPLSWWEAVKKILKNLSERSKEMGGKIRAISTSGQMHSLVAIDDNGKVLRNAILWCDQRTYKECEEATQILGGEENVLKLVGNPILPGFTLPKILWIRKHEPEIYGKISKIMLPKDFINYMLTGEVKTEHSDASGTVMYSVSKMEWNKDVLKELNIPESVLPEIIPSNGVVGNVKPEVASDLGLSEDTLVIGGGADNACAALGIAVVEPGDVMVSLGTSGTVLAPTKGNQPDPKGRVHFFAHTVPETRYHMGVMLSATYSLEWFKEKFLSEDYETINEEVDKIPAGSNGIIFLPYLNGERTPHRDPFARGVFFGISSYNTKWDMVRAIFEGVAFGIKDSFDILRELKVVLNSVRITGGGSKSRVWNKMLADMTGLRIQKPAVDEGASYGAAILAVSGSMGENPAKISKEWFRVKSYTDPAVENTETYEKLHEKFKKLYTSLKEMFRS | not soluble
MGSDKIHHHHHHMELVSVKRIWEQGEHNAFTDLVLYQGTLFCVFREGSAHVSPDGALRILRSHDAGETWQSVALLTSAHADLRDGKLIEFRGELLLLGGGTQHDKSGLQSYLWRSKDGVHWSEPQAVADKGYWLWRLTEHQDALYGVGYRAGPDGDTRLYKSDDSVEFTPWMPVFNNQGYVNESSLVFHQGSCFCLLRRDPVWSDEFLGLLGHSLSPFKQWTWQTLDKRIGGPVLFVYQSRLMAVVRLYEGDIRTALVEINQDTGQLHEWLTLPSQGDTSYAGIVLDGDDLLVSYYSSHEQAMVSDLERSDTQDDKAQDKFKTMIYFAKIKLGQN | not soluble
MSLSKMEINKRALKENMALLACPICGEAFEFKEPQSFVCLEGHGFDIAKPGYVHLLKQAHKTKYDQALFESRKKVIASGFFEKLIERVTEIIAEKKKEQLVLYDAGCGEGSHLARVVSNLQATGVNVQAVGLDIAKEGVKQAARDYPGTSWTVADLANCPNQAETADVILNILSPSNYVEFKRLLKKDGFLLKVVPEANYLRELREFIYVDEKSSYSNESVTSRLAEKLSVEHVERVTYKAPIAKELFADFLEMTPLGWHIEADKKSELLGNPPEELTVDLQIIIANRAHLLEGHHHHHH | soluble
MNVNGENNEKIDEHHLESSLAGVPTLPVSPLDHAKDLSQTNPNAQIGDLVTQTANLIAIKKQLLEDIAFNQHIQSMQVRAIQSFPQNNQVAPPFQQFDPRRRGLARMQKPESYKTVICQAWLESKTCSFADNCRFAHGEEELRPTFVEPLQNNKYKTKLCDKYTTTGLCPYGKRCLFIHPDHGPNAYIRADKLLEVSQRHALADIRDQMEQHIMTNGRIAAPPLSAIQHPLEMFARPSTPDEPAAKLPLGPTPVSTRGPRYELPTKELHDAEGAMTYPPSRWPLDPSMFALDAWNMAHRPASPLDSMVLGSAPNAGSFGMLGKQNTPGGVSGYSSAGSTPSQDLSSSSLNAASAAAAAAYFANSAVAQSLLMKSVATDPMMSCNGPFSPMPGFDQLAENMTKHLNLW | not soluble
MKIVDVLCTPGLTGFYFDDQRAIKKGAGHDGFTYTGSTVTEGFTQVRQKGESISVLLVLEDGQVAHGDCAAVQYSGAGGRDPLFLAKDFIPVIEKEIAPKLIGREITNFKPMAEEFDKMTVNGNRLHTAIRYGITQAILDAVAKTRKVTMAEVIRDEYNPGAEINAVPVFAQSGDDRYDNVDKMIIKEADVLPHALINNVEEKLGLKGEKLLEYVKWLRDRIIKLRVREDYAPIFHIDVYGTIGAAFDVDIKAMADYIQTLAEAAKPFHLRIEGPMDVEDRQKQMEAMRDLRAELDGRGVDAELVADEWCNTVEDVKFFTDNKAGHMVQIKTPDLGGVNNIADAIMYCKANGMGAYCGGTCNETNRSAEVTTNIGMACGARQVLAKPGMGVDEGMMIVKNEMNRVLALVGRRK | soluble
MDLEISEKIKAYRQVMSAKSPSDAALTWNLFDLPNNMELARFFSTLSKEEMAKFEQCVFVDGQDPKTYIKMHKMVESTATIALSEEIENKRTILVAEPNRGGVSGHEGEMASTSSGFRDGYHPCMDHTSYAEGLFTESEKAWELERLLKLQKEIAEAKSKIVKQKKPSIKSA | not soluble
RFTPRWIVRFLVENSLGRLWAEMHPDSRLKDSLSYLVPIENSQAHPLKLVRDITFLDPSCGSMHFGLVAFDLFAEMYREEFEKAGQPGWPENPSVNAEDEIASSIIAHNLHGIDIDLRSVQISALTLLLRARTLSPKCAFTDRNLACANVEQTSGGKLETLIAAAKFSHPIYERVLRTLAAEMKDSDQLGSLLRLERSLERLVIEERRKAEENKQFLLSFPGISPEQFDTQAGIEEFFDLLSDQLLRHLDFFVRASREMGGDPGHIVNEAAKGLRYMQLVSHHYDVVATNPPYMSRRNMSDVIAKHLDKHYPETKGDLYAAFIARCLELVAPQGKVAMVTQQSFMFIGTYEKFRSNLLSRVTVETMAHLGPKAFPNITGEKVNTTAFVIRREPDG | not soluble
